What was measured:
[1] = molecular target: green fluorescent protein (GFP) (Aequorea-derived) [GFP: P42212]; test: cell-based or functional assay
DsRed = DsRed (UniProt Q9U6Y8); test: cell-based or functional assay
UniProt Q9U6Y8, sequence (Q9U6Y8 whole entry): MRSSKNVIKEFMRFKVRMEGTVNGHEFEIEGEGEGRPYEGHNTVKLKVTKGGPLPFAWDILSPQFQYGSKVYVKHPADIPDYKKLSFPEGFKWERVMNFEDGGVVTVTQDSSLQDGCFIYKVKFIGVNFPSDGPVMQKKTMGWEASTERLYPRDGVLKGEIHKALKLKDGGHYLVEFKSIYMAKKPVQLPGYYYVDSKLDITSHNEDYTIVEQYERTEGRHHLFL

dGBP1x2-Flpo (Flp dependent on GFP, Flp-DOG) (VHH)
fold induction of the Flp-dependent luciferase reporter by GFP, 293T cells [1]: 636 fold

dGBP1-TagBFP (destabilized GBP1 fused to TagBFP) (VHH)
% TagBFP+ given GFP+ or DsRed+ cells in ONL (+CAG-DsRed) (DsRed): 0% | % Anti-TagBFP+ given GFP+ cells (CAG promoter for GFP, INL) [1]: 97% | % Anti-TagBFP+ given GFP+ cells (CAG promoter for GFP, ONL) [1]: 100% | % Anti-TagBFP+ given GFP+ cells (Rho promoter for GFP, ONL) [1]: 100% | % GFP+ cells given Anti-TagBFP+ cells (CAG promoter for GFP, INL) [1]: 99% | % GFP+ cells given Anti-TagBFP+ cells (CAG promoter for GFP, ONL) [1]: 100% | % GFP+ cells given Anti-TagBFP+ cells (Rho promoter for GFP, ONL) [1]: 100% | % TagBFP+ given GFP+ or DsRed+ cells in ONL (+CAG-GFP) [1]: 91%
